Patent US20180031558A1, “BIOMARKERS OF ACUTE LIVER INJURY” (The Regents of the University of Michigan, priority 2014, published 2018)
Entries after “also recorded” stand apart in the source; their conditions may differ. Where two headings read alike, the source gives them in different places.

What was measured:
liver [1] = test: FasL and APAP induced mouse liver injury, histological analysis of liver sections; assay type: in vivo; details: mice, intraperitoneal; FasL 0.15 μg/g, 4 h; APAP 700 mg/Kg, 8 h
Experimental: FIG. 4. CPS1 is released into serum during FasL and APAP induced mouse liver injury. Mice were injected with FasL (0.15 μg/g) and APAP (700 mg/Kg) and sacrificed after 4 h and 8 h, respectively. Liver damage was analyzed serologically, biochemically and histologically. Panel A: Immunoblots of serum CPS1, HMGB1 and caspase activation using total liver lysate. Coomassie stain of serum IgG heavy chain (just above the 50 kDa prominent species) and IgG light chain (25 kDa), and an actin blot of total liver lysates are included as loading controls. Serum ALT of the individual mice is also indicated (bottom of panel). Panel B: Hematoxylin and eosin stained liver sections. […] Scale bar=40 μm.
(§1) Primary hepatocytes from mice were isolated (Snider et al. J Cell Biol 195: 217-29, 2011.; herein incorporated by reference in its entirety). […] Serum ALT levels were determined using a Vetscan-vs2 instrument (ABAXIS) using the comprehensive diagnostic profile cartridge or using Unit for Laboratory Animal Medicine (ULAM) core facility at University of Michigan. […]
Mice were injected with FasL in saline (to induce apoptosis), or with APAP in DMSO (to induced necrosis) or were injected with vehicle (saline or DMSO). The serum and liver histology were then analyzed. For both the APAP and FasL conditions, CPS1 was more easily detected in the serum of the mice and parallels the elevation of ALT (FIG. 4A). […]

[2] = system: primary mouse hepatocytes; test: Viable cell count by trypan blue staining of treated primary hepatocytes; assay type: cell-based; details: FasL 0.5 μg/ml, APAP 1 mM
Experimental: FIG. 2. Primary hepatocytes release CPS1 in response to difference types of liver injury. A: Primary mouse hepatocytes were cultured in the presence of hypoosmotic media (200 mOsm/L), FasL (0.5 μg/ml), and acetaminophen (APAP, 1 mM). The concentrated cell culture media and total cell lysates were used for immunoblotting with antibodies to the indicated proteins. B: After each treatment as in panel A, the viable cell count was determined using trypan blue staining after trypsin treatment. Each bar represents the mean of 10 to 15 fields. […] C: Mouse hepatocytes were challenged with FasL, APAP and hypoosmosis as in Panel A. Cells were fixed and immunostained with CPS1 (red) and counter stained with DAPI (blue). Arrows highlight areas with less dense CPS1 staining. Scale bar=20 μm.
as §1, with “entirety). The liver was perfused with 3-5 ml of perfusion media through the portal vein with a flow rate of 3 ml/min followed by perfusion with 15-20 ml of digestion media containing 150 units/ml of collagenase-II (Worthington) at the same flow rate.” for “entirety).”

liver [3] = details: mice fed 0.1% DDC for 10 days, 15 days, 6 weeks, 3 months
Experimental: Serum CPS1 in chronic liver injury. Panel A: The presence of serum CPS1 and HMGB1 was tested in animals exposed to the hepatotoxin DDC for 10 days, 15 days, 6 weeks and 3 months. Corresponding serum ALT values are also included. […] Each lane corresponds to serum from separate mice. Two mice for each time point were shown except the control. Panel B: Hematoxylin and eosin staining of livers from control and DDC-administered mice. Scale bar=40 μm. Panels C and D: Human sera from patients with chronic hepatitis B virus infection (HBV), chronic hepatitis C infection (HCV), or controls were analyzed for the presence of CPS1 and HMGB1. Serum from APAP and from control donors with normal ALT were used as positive and negative controls, respectively. […] Each lane represents separate patients or donors.
To test the CPS1 release during chronic mouse liver injury, mice were fed 0.1% DDC (a porphyrinogenic hepatotoxin) for 10-days, 15-days, 6-weeks and 3-months and serum CPS1 levels were analyzed.

[4] = Half-life of CPS1 in mouse serum after FasL injection (western blot densitometry); assay type: in vivo
Experimental: FIG. 6. CPS1 has a short half-life in mouse serum. In order to determine the half-life of CPS1 in mouse serum, mice (five total) were injected with FasL (0.075 μg/g) and blood was collected from the same animal via tail vain at the indicated time points. Sera were used to determine serum ALT, or mixed with 2× SDS sample buffer to measure circulating serum CPS1 by western blot analysis. CPS1 pixel intensity (CPS1 OD) at each time point was determined by densitometry scanning. Panels A-D: Immunoblots of time-dependent serum CPS1 levels of four individual mice are shown. CPS1 OD and serum ALT values at each time point are indicated. A Coomassie stain of serum is included as loading control. To determine the half-life of serum CPS1, the OD values of 24 h to 32 h of all five mice were used. Assuming an exponential decay, half-life of CPS1 for each time interval was calculated using the equation; Ending amount=Beginning amount/[…]; where n=number of half-lives. […]
as §1

[5] = rats; cited from earlier work

## CC(=O)Nc1ccc(O)cc1 [APAP, acetaminophen]
Liver [1]
  liver histology (hematoxylin and eosin): necrotic cell death
[2]
  cell death (viable cell count, trypan blue): significant cell deaths

## CCOC(=O)C1=C(C)NC(C)=C(C(=O)OCC)C1C [DDC]
Liver [3]
  liver histology (hematoxylin and eosin): early evidence of cell drop off at days 10 and 15

## FasL: Fas ligand, which induces hepatocyte cell death (apoptosis)
Liver [1]
  liver histology (hematoxylin and eosin): marked liver hemorrhage; also recorded: severe hemorrhage formation

B1: CPS1: most abundant mitochondrial matrix protein of liver, urea cycle enzyme; serum biomarker of acute liver injury (protein, UniProt P31327 39-1500, looked up)
Carbamoyl-phosphate synthase …: LSVKAQTAHIVLEDGTKMKGYSFGHPSSVAGEVVFNTGLGGYPEAITDPAYKGQILTMANPIIGNGGAPDTTALDELGLSKYLESNGIKVSGLLVLDYSKDYNHWLATKSLGQWLQEEKVPAIYGVDTRMLTKIIRDKGTMLGKIEFEGQPVDFVDPNKQNLIAEVSTKDVKVYGKGNPTKVVAVDCGIKNNVIRLLVKRGAEVHLVPWNHDFTKMEYDGILIAGGPGNPALAEPLIQNVRKILESDRKEPLFGISTGNLITGLAAGAKTYKMSMANRGQNQPVLNITNKQAFITAQNHGYALDNTLPAGWKPLFVNVNDQTNEGIMHESKPFFAVQFHPEVTPGPIDTEYLFDSFFSLIKKGKATTITSVLPKPALVASRVEVSKVLILGSGGLSIGQAGEFDYSGSQAVKAMKEENVKTVLMNPNIASVQTNEVGLKQADTVYFLPITPQFVTEVIKAEQPDGLILGMGGQTALNCGVELFKRGVLKEYGVKVLGTSVESIMATEDRQLFSDKLNEINEKIAPSFAVESIEDALKAADTIGYPVMIRSAYALGGLGSGICPNRETLMDLSTKAFAMTNQILVEKSVTGWKEIEYEVVRDADDNCVTVCNMENVDAMGVHTGDSVVVAPAQTLSNAEFQMLRRTSINVVRHLGIVGECNIQFALHPTSMEYCIIEVNARLSRSSALASKATGYPLAFIAAKIALGIPLPEIKNVVSGKTSACFEPSLDYMVTKIPRWDLDRFHGTSSRIGSSMKSVGEVMAIGRTFEESFQKALRMCHPSIEGFTPRLPMNKEWPSNLDLRKELSEPSSTRIYAIAKAIDDNMSLDEIEKLTYIDKWFLYKMRDILNMEKTLKGLNSESMTEETLKRAKEIGFSDKQISKCLGLTEAQTRELRLKKNIHPWVKQIDTLAAEYPSVTNYLYVTYNGQEHDVNFDDHGMMVLGCGPYHIGSSVEFDWCAVSSIRTLRQLGKKTVVVNCNPETVSTDFDECDKLYFEELSLERILDIYHQEACGGCIISVGGQIPNNLAVPLYKNGVKIMGTSPLQIDRAEDRSIFSAVLDELKVAQAPWKAVNTLNEALEFAKSVDYPCLLRPSYVLSGSAMNVVFSEDEMKKFLEEATRVSQEHPVVLTKFVEGAREVEMDAVGKDGRVISHAISEHVEDAGVHSGDATLMLPTQTISQGAIEKVKDATRKIAKAFAISGPFNVQFLVKGNDVLVIECNLRASRSFPFVSKTLGVDFIDVATKVMIGENVDEKHLPTLDHPIIPADYVAIKAPMFSWPRLRDADPILRCEMASTGEVACFGEGIHTAFLKAMLSTGFKIPQKGILIGIQQSFRPRFLGVAEQLHNEGFKLFATEATSDWLNANNVPATPVAWPSQEGQNPSLSSIRKLIRDGSIDLVINLPNNNTKFVHDNYVIRRTAVDSGIPLLTNFQVTKLFAEAVQKSRKVDSKSLFHYRQYSAGKAA
[4]; mice injected with FasL 0.075 μg/g, OD values of 24 h to 32 h of five mice, mean±standard error of mean
  average half-life of CPS1 in mouse serum: 2.1 ± 0.15 h
[4]; mice, FasL treatment 0.075 μg/g, combination of turnover and ongoing release
  half-life of CPS1 in mouse serum: ~2.1 h
[5]
  half-life of CPS1: 1.12 h
